In article PMC5245964 (2017):

Target: MBP-M18BP1^1-140-8His (Homo sapiens (Human), UniProt Q6P0N0)
Assay: amylose-resin pull-down, CBB-stained gel; Mis18β Yippee domain alone does not bind; binding requires the Mis18α:Mis18β Yippee heterodimer (Mis18α Yippee domain present)

Chain of MBP-M18BP1^1-140-8His (Q6P0N0 1-140, one chain of several): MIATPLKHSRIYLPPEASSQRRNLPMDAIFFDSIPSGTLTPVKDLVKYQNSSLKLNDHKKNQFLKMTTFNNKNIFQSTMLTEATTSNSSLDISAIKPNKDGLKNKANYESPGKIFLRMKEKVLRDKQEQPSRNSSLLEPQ

B1: 6His-Mis18β^73-189 (protein)
chain: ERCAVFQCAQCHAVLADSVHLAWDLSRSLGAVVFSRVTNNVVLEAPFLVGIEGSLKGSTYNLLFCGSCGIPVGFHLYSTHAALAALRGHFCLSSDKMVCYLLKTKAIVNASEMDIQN
  binding result: no binding
